The text below walks through data of a protein production outcome set (Wang et al. 2014).

A short description of the data set: label from the status in PepcDB records.
Consider “MMEEVARVVACDNQGWLTVEVELKSTCKSCNSSESCGTSAVAQAFSSKTQQFSIQSERTCEVGELLKLGLPESVILKAAALVYLMPLLGLFLGALSGQFFAGLFQINADLSAIGFAALGAITAWLIGKRKAKQLEVDSQPVILAYLGAGISLEKLPV”, for which the protein production result is “failed”. Then “MMEHHKVHTTIQALQAKRKKLLTELAELEAEIKVSSERKSSFNISLSPSLLAEIEEIEYEEKTSKERRINHSVLLSPSFMAKVDEYMKEKGFSNRSLLFEKALEFYMLKHP”, with “failed”; and “MMEQALQTITLSCEWSEERQCFWLSSSSPATSWAPLVFAWHEETFYGTLIDSVIVNGREVVQLSPWQALTFFASRPSISFVAIEWKDEFTAQLETWARQIWDDLRERRFRPDFAAWKERRSTLWSEAQHTRWLGLDADPHPFITTWRSLAIADWLSRDPELRDIWQEIIKDYPAILARNDQWISGEDDWLEQIGWLGERPLFTVGLRLVEPPEDGDSWTLETVLIALDDSVVVPVDEIPRAWRPYEQSIARAIRRIETIIPWLGGNGELRNELSDDEAWLFLSEESLKLTEAGVRLLLPDWWHNIRQAQLSIKAKLSPSVHAESLFGLERLSDFDWRVATNGIELTEEEFAAIAEQKRRLIRLRGQWIALDPALVRRAQTLMEKAKQEGVPIHEIVAQTLLAEANARDEATDEHIPIHIDVQNQFRAFIRQLHNIDELPTAVVPPSFHGTLRPYQQRGVDWLAFLRRFGFGACLADDMGLGKTVQLLAYLAYVKETEHPDTPALLICPTSVIGNWQKECARFTPELRVYTHHGPNRAKHEAFLQTAGRADLVITSYSLAHLDGDDLKQLHWHTVCLDEAQNIKNAQTKQARAIRRLRAKHKIALSGTPVENRLNELWSIFHFLNPGYLGSATEFERRFAGPIEKEGDAHKKAALQALIRPFLLRRTKTDEAVALNLPDKLEQKEYCPLTAEQAALYEQLVNDTLERAKAASPFARRGLILQMLNGIKQICNHPALYLKERSPRQLVERSHKLEKLVELVEQIRANDESCLIFTQYVRMGEMIQELLSDLFDEPVLFLNGSVPKPTRDRMVDEFQARKAPIFLLSLKAGGTGLNLTAANHVIHFDRWWNPAVENQATDRAYRIGQTKFVHVHKLITTGTIEEKIDEMLEQKQALADVITEGETWITELSDDELRDLLTLSAAAKGGA”, with “failed”.

On to “MMGNDSYSSNRGSSRDVLSFLQNFLGGFYAKYGIEVKLVGGLSLSKFYYAFDAERNQFLARHFLPVLSYIKKDFNARAALGIVNVDIYEPGFNFIFGLAHPGLKVAVVSLYRLYPEFYGNPPDRKLLKERALKEVMHELGHVFGLGHCPNPKCVMHFSNSIIDTDIKSWMYCESCLRKLEKNLARSHVLEHHHHHH”, for which the protein production entry was “failed”. Then “MMIMERHYTLKEASKILGVSIKTLQRWDKAGKIKCIRTLGGKRRVPESEIKRILGIKDKEQRKIIGYARVSFNAQKDDLERQIQLIKSYAEENGWDIQILKDIGSGLNEKRKNYKKLLKMVMNRKVEKVIIAYPDRLTRFGFETLKEFFKSYGTEIVIINKKHKTPQEELVEDLITIVSHFAGKLYGMHSHKYKKLTKTVKEIVREEDAKEKE”, with “failed”; and “MMIMKRLLFLVSVCSLCMVGNSQNYQPEKHAVVKSDRGDGRLLSTYAIVHEMLKDTHPQYAYRSGMSAQEFTQWQDGVRAAMVEIMKFPEIKRQPSPVCVKTEKKEGYILEKWEFYPFPKSVSTFLVLKPEHLKGAVPGVLCIPGSGRTKEGLVGEPGICDKLTEDYNNPKVSMALNMVKEGYVAVAVDNAAAGEASDLECYDKGWNYDYDVVSRFLLELGWSWLGYTSYLDMQVLNWMKAQSYIRKDRIVISGFSLGTEPMMVLGVLDKDIYAFVYNDFLCQTQERAVVMTKPDKENRRPFPNSIRHLIPGYWRYFNFPDVVASLAPRPIIFTEGGLDRDFRLVQSAYAASGKPENAEFHHYPKFADKAVRKDVEHLDEGLDSKTYFEAVNVDPPSHYFKNELVIPWLRKVLK”, with “failed”; and “MMIQGHLFHQDRKRTFRIVEPFGSTTDALIYFHGSQQSGSVGRSFTNRTFDPLPFMVVYPDGVDQHWNDARLGLDENTRHLGIDDVGFFVKLATHLGNTYGIKRIFIVGYSNGGQMVLRLMHEVPKMLSGAATIASNMPVAENTLPQVKTFKTHPVPYLAMAGTADTFSPYEGGDAGIGREHRRGVGMSAFDSAAYIAARNGLTEHRHDVIDDVVSIDTWDGENPVEFWTLNGIGHLVPSGKTYPEFLGPSTTSVIAAEEIGKFFDGVRRR”, with “failed”. Then “MMKAEELNKGFVNEIIEAGTPVPGEKEVASLKSCYQCGTCTGSCPSGRRTAYRTRKVIRQALLGIDSVLDSDDIWKCTTCYTCYERCPRDVKVTEIIKTIRNLAAKKGNMATPHKMTAVYVLKAGHAVPANDDTAKLRKSIGLAEKAPIAQFSQKDMDEIRTIAKNLKFDELIGFDWKTMGLKQ”, with “failed”; and “MMKCTALIVTFNRLEKLKKSVRETVKAGFSSIVIVNNGSSDGTREWLSSLSEPGITILNLKDNLGGAGGFKVGSQYICSYSNADWVFFYDDDAYPEINILKHFSLLDTSRYRIFASRVQDTYGRSCRMNLPFIRVPSTVFETIYYAMRPERFSPVRTQVTDVQTVSFVGMIIDRKVLNNHLNDIHDELFLYYDDFFFGYKLVLSGQKIRYSPEIKFIHDISIHGKCICPEWKVYYLCRNLLLLRKLLPVPRIFSVLSIVLRLSKYLAILPWQRKKFRYLYFIWQGILHGLKGISGKYH”, with “failed”. The entry for “MMKDMTTGNPTKLIFLFAMPMLIGNLFQQFYTMIDAVIVGKFVSVDALAAVGATNSVNFFMISLIIGLMSGISVVVAQYFGFKDYDRLKDVIATATYAVVFSAIILTVAGVLLAKPLLILLRTPANILDDSTIFLTTLFIGILPMSLYNGMAAILRALGNSITPLIFLILSSLMNIALDFLFVVYMDMGVRGAAIATVLSQTAAAIAVIYYAYRHVPFMRIERAKFKLSTPLLKEMVRIGLPSGLQGSFISIGNMALQSLINGFGSSVVAAYTAASRIDSLTYQPGIAFGAASSMFAGQNIGAGKIDRVREGFWSGIKVVTAISIGITILVQLFARQFLLLFVDSSETEVINIGVSYLLIVSLFYVVVGILFVVRETLRGTGDAMVPLAMGIFELVSRLVIGFVLSLYIGYVGLWWATPVAWITATILGVWRYKSGAWQKKAVIRRK” is “not failed”; for “MMKKLTALFVASTLALGAANLAHAAETTTAPSDSKPMMMHHKGGPGQHDMMFKGLNLTDAQKQQIRDIMKSQRENMKRPSLEERRAMHDLIASDTFDKAKAEAQIDKMEAQHKAMALSRLETQNKIYNILTPEQKKQFNANFEKHLTERNAPAGKMPAPAE” it is “failed”. “MMKKMMVLYNETSGSSESKEIAERFKKAAEARGEAVILQPSNPDIDPEEMRKNAKENQVGVLVVIGGDGTIHHAVQNFKDTIRDYQIGIIPGGTVNNFARVLSIPLKEEDAFETILAGQTTPVDFGMVNQD”: the protein production result is “failed”. Then “MMKLVCPSYIAKRKDSLAFKLFSYMTAIVISILLVQALAEQALVKAMLKVPNSVKMEMLDLAHQANVLIEHGDMDELADWANAQQFYLFVLNEQLQPVTHRLMHPHFEFKLQFKRSIDDQLEDKVNRPIISIPLVQQHNLVIQLPHRLHPANDFILYFSIIKVVIAAVILALFSLLMARNLQQPLDRLREASKKLSNGDFNVSVVQELKSNTREFNELAQDFDHMTKEIHSLAEKQRLLIRDVSHELRTPLARQNLVLHLLRKRVGESEQELVTRLEDEAKELNHLISDILEFSRLENARYDKETKRSDLEVLLAPQVERCKIDLRESQSIVFISRVTEPRAYCEDTLVVRCLNNLVGNAIKYAGEDARIEVTLTNQEINGQAYLVMSVSDDGPGIPENKLSDIFNPFTRLDASRDKKLGGYGLGLAIVKESMRMMGGSVNAENRSQGGLTVSLVFRQ”, with “failed”; and “MMMLPEACIANILAFTSPADAFSSSEVSSVFRLAGDSDFVWEKFLPSDYKSLISQSTDHHWNISSKKEIYRCLCDSLLIDNARKLFKINKFSGKISYVLSARDISITHSDHASYWSWSNVSDSRFSESAELIITDRLEIEGKIQTRVLSANTRYGAYLIVKVTKGAYGLDLVPAETSIKSKNGQISKSATYLCCLDEKKQQMKRLFYGNREERMAMTVEAVGGDGKRREPKCRDDGWMEIELGEFETREGEDDEVNMTLTEVKGYQLKGGILIDGIEVRPKT”, with “failed”; and “MMMLPEACVANILAFTSPADAFSSSEVSSVFRLAGDSDFVWEKFLPSHYKSLISQSTDHHRIFSSKKEIYRCLCDSLLIDNARKLFKINKFSGKISYILSARDISITYSDHASYCSWSNVSDSRFSESAELITTDRLEIKGKIQTTVLSPNTKYGAYLIMKVTNGAYGLDLVPAETSVKSKNGQNNKNTTYLCCLDEKKQQMKRLFYGNREERMAMTVEAVGGDGKRREPKARDDGWLEIELGEFVTREGEDDEVNMSLTEVKGYQLKGGIVIDGIEVRPIPLK”, with “failed”. Turning to “MMNDYLNFLDGRVSVRRFDPDAVLPNDLIKDMLEHASYAPSGNNFQPWRVVVVKNKNKQEDLKKLAALQPQVATASAVFLLFGDENAYDLTWWQEFHVQKGIITKDEAAARAERIRQYFDLHPEDKETQGLRLDVGLFAMNLMQVVRVYGYDSVPMRGVDFDAIKTYLDMPNGWEPILMLPVGKALQAGNPHVRKSVAEFAEIIE”, the protein production result is given as “not failed”. The entry for “MMNNMDSIINYIYEGDYFIVTSHISPDGDNIGSTLSMYYTLKNLGKNVYYVLDDEAPLNLRFLVEGVKIYKSNEFNMKNYSLIALDCGDKMRICVSDEIKNNASKLICIDHHASNDSYGDLNYVDIDASSTCELVYNLLVRFQQIKDINIINEDIATCLYTGLVTDTGNFSYSNVHASSFEMAKNLLVLGAQKNTIIQNIYQSN” is “failed”.

With “MMNNSEGLKSFQQSLADLPQWVSERLLQQINQLTNYEPVIGIMGKTGVGKSSLCNALFAGDISPVSDVAACTREPLRFRLQVGDRYITLMDLPGVGESGARDTEYAALYREQLPRLDLVLWLIKADDRALTVDEHFYHQVIGEVYRHKVLFVISQSDKAEPTSGGGQLSTAQKQNISRKICLLHELFQPVHPVCAVSVRLQWGLKVMAERMIKCLPREATSPVVSQLHPSFRTTVVREQARSDFGETVGAVLDSISAFPLIPAPVRAVIQAVRTTVVSVARAVWDFFF”, the protein production result is given as “failed”. The entry for “MMNRLAVRIPTMHSFAWTAADAASRWRLLRISMLLQGFPRNPEPAVRAPDLWRTRVGGGSFGVLFLEAAEVPEALPMQGLSASLVLIAVLAVLAPVATRLLDRWVKVPIVVFEIVLGILFGPSVLGWVQSTPFTDTLADFGLAMLFFVAGNEIDFAAIRGRPIYRASAGWVISLAAGIGAGFVLGPSPEAAVIIGVALCSTALGALLPILRDAGASKSPIGVAATALGAAGEFGPLIAISLFFSGKQLGVASGVLLGFVLLTGVAIYLASQARHTLFHAQVTATLHTSSQFAMRSILLILSSLVVLSMVLGLDMLLGAFAAGVLWKVTIARAPVADRKVIETKIDAVAFGFLVPIFFIDTGIDFDLGALTSSPLTLAMVPLFLSLLLLIRGVPSLLATPPGSSRADKQALLLFGATALPIIVAVTTIGREHGYITSGISSALIGAGMLSVLLFPLLALRLLRRTEAADPKQRTPKA” is “failed”.
